Starred links: 1 amine or outer side, 2 acyl side, 3 side chain; linkers in the order of their positions; H or OH if unused. Non-standard residues stand in square brackets, D forms with d. Primed or numbered codes have the meaning given here. *: point of attachment. AC4Abu = α-carboxy-4-aminobutyric acid, O=C(C(CCN[*:1])C(=O)[*:3])[*:2]; Oic = O=C(O)[C@@H]1C[C@@H]2CCCC[C@@H]2N1; Phe(4-Cl) = N[C@@H](Cc1ccc(Cl)cc1)C(=O)O; γGlu = O=C(O)[C@H](CCC(=O)[*:2])N[*:1]; NMeR = CN[C@@H](CCCNC(=N)N)C(=O)O; Tridecanoyl = CCCCCCCCCCCCC(=O)*; Cha = N[C@@H](CC1CCCCC1)C(=O)O; Tle = CC(C)(C)[C@H](N)C(=O)O; αMeP = C[C@@]1(C(=O)O)CCCN1; β3hP = O=C(O)C[C@@H]1CCCN1; Nle = CCCC[C@H](N)C(=O)O; Pip′ = not defined here; AEEA = NCCOCCOCC(=O)O
Legend:
human APJ receptor = target: T1, human APJ receptor (human, UniProt P35414 1-380); experiment: cell-based or functional assay
T1 sequence (looked up): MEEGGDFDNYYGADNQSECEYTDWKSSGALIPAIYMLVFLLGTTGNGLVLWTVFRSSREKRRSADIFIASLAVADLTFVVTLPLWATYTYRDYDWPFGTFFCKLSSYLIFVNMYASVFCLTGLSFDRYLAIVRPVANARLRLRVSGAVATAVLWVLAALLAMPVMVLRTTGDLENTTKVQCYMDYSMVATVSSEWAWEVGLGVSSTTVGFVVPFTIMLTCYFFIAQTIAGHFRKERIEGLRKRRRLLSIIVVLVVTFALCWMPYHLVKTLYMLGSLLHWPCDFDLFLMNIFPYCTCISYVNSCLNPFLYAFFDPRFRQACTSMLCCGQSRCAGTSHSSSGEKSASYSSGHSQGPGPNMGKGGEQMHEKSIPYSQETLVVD

rat APJ receptor = target: T2, rat APJ receptor (rat, UniProt Q9JHG3 1-377); experiment: cell-based or functional assay
T2 sequence (looked up): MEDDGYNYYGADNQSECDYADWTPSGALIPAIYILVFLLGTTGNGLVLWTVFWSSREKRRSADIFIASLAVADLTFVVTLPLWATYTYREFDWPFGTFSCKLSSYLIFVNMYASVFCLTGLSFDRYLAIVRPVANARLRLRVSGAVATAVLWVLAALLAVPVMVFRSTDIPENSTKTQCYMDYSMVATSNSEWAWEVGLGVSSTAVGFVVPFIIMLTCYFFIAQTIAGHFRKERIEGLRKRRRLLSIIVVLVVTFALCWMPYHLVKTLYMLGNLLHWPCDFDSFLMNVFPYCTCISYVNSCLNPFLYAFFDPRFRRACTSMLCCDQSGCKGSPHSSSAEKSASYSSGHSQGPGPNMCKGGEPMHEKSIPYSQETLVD

B1: Apelin polypeptide SEQ ID NO: 487 (peptide)
peptide: Tridecanoyl-[γGlu][AEEA][AEEA]QRP[NMeR][Cha]SHKG[Oic][Nle][β3hP][Phe(4-Cl)]-OH
SMILES: CCCCCCCCCCCCC(=O)N[C@@H](CCC(=O)NCCOCCOCC(=O)NCCOCCOCC(=O)N[C@@H](CCC(N)=O)C(=O)N[C@@H](CCCNC(=N)N)C(=O)N1CCC[C@H]1C(=O)N(C)[C@@H](CCCNC(=N)N)C(=O)N[C@@H](CC1CCCCC1)C(=O)N[C@@H](CO)C(=O)N[C@@H](Cc1c[nH]cn1)C(=O)N[C@@H](CCCCN)C(=O)NCC(=O)N1[C@H](C(=O)N[C@@H](CCCC)C(=O)N2CCC[C@H]2CC(=O)N[C@@H](Cc2ccc(Cl)cc2)C(=O)O)C[C@@H]2CCCC[C@@H]21)C(=O)O
With B1 the “EC50 Human APJ Receptor (GTPγS assay)” value (human APJ receptor) was 1.83 nM and the “EC50 Rat APJ Receptor (GTPγS assay)” value (rat APJ receptor) was 8.19 nM.

B2: Apelin polypeptide SEQ ID NO: 541 (peptide)
peptide: Tridecanoyl-[γGlu][AEEA][AEEA][dQ]RP[NMeR][Cha]SHKG[Oic][Nle][αMeP][Phe(4-Cl)]-OH
SMILES: CCCCCCCCCCCCC(=O)N[C@@H](CCC(=O)NCCOCCOCC(=O)NCCOCCOCC(=O)N[C@H](CCC(N)=O)C(=O)N[C@@H](CCCNC(=N)N)C(=O)N1CCC[C@H]1C(=O)N(C)[C@@H](CCCNC(=N)N)C(=O)N[C@@H](CC1CCCCC1)C(=O)N[C@@H](CO)C(=O)N[C@@H](Cc1c[nH]cn1)C(=O)N[C@@H](CCCCN)C(=O)NCC(=O)N1[C@H](C(=O)N[C@@H](CCCC)C(=O)N2CCC[C@@]2(C)C(=O)N[C@@H](Cc2ccc(Cl)cc2)C(=O)O)C[C@@H]2CCCC[C@@H]21)C(=O)O
In the case of B2, the “EC50 Human APJ Receptor (GTPγS assay)” value (human APJ receptor) is reported as 0.938 nM and the “EC50 Rat APJ Receptor (GTPγS assay)” value (rat APJ receptor) is reported as 1.98 nM.

For Tridecanoyl-[γGlu][AEEA][AEEA]QRP[NMeR][Cha]SHKG[Oic][Nle][Pip′][Phe(4-Cl)]-OH [Apelin polypeptide SEQ ID NO: 445], the “EC50 Human APJ Receptor (GTPγS assay)” value (human APJ receptor) was 4.29 nM and the “EC50 Rat APJ Receptor (GTPγS assay)” value (rat APJ receptor) was 4.71 nM.

B3: Apelin polypeptide SEQ ID NO: 542 (peptide)
peptide: Tridecanoyl-[γGlu][AEEA][AEEA][dQ]RP[NMeR][Cha]SHKG[Oic][Nle][β3hP][Phe(4-Cl)]-OH
SMILES: CCCCCCCCCCCCC(=O)N[C@@H](CCC(=O)NCCOCCOCC(=O)NCCOCCOCC(=O)N[C@H](CCC(N)=O)C(=O)N[C@@H](CCCNC(=N)N)C(=O)N1CCC[C@H]1C(=O)N(C)[C@@H](CCCNC(=N)N)C(=O)N[C@@H](CC1CCCCC1)C(=O)N[C@@H](CO)C(=O)N[C@@H](Cc1c[nH]cn1)C(=O)N[C@@H](CCCCN)C(=O)NCC(=O)N1[C@H](C(=O)N[C@@H](CCCC)C(=O)N2CCC[C@H]2CC(=O)N[C@@H](Cc2ccc(Cl)cc2)C(=O)O)C[C@@H]2CCCC[C@@H]21)C(=O)O
In the case of B3, the “EC50 Human APJ Receptor (GTPγS assay)” value (human APJ receptor) is reported as 5.19 nM and the “EC50 Rat APJ Receptor (GTPγS assay)” value (rat APJ receptor) is reported as 16.1 nM.

B4: Apelin polypeptide SEQ ID NO: 413 (peptide)
peptide: Tridecanoyl-[AC4Abu][AEEA][AEEA]QRP[NMeR][Cha]SHKG[Oic][Tle]P[Phe(4-Cl)]-OH
SMILES: CCCCCCCCCCCCC(=O)NCCC(C(=O)O)C(=O)NCCOCCOCC(=O)NCCOCCOCC(=O)N[C@@H](CCC(N)=O)C(=O)N[C@@H](CCCNC(=N)N)C(=O)N1CCC[C@H]1C(=O)N(C)[C@@H](CCCNC(=N)N)C(=O)N[C@@H](CC1CCCCC1)C(=O)N[C@@H](CO)C(=O)N[C@@H](Cc1c[nH]cn1)C(=O)N[C@@H](CCCCN)C(=O)NCC(=O)N1[C@H](C(=O)N[C@H](C(=O)N2CCC[C@H]2C(=O)N[C@@H](Cc2ccc(Cl)cc2)C(=O)O)C(C)(C)C)C[C@@H]2CCCC[C@@H]21
With B4 the “EC50 Human APJ Receptor (GTPγS assay)” value (human APJ receptor) was 1.53 nM and the “EC50 Rat APJ Receptor (GTPγS assay)” value (rat APJ receptor) was 1.54 nM.

From US10941182 (Amgen, dated 2021)
